The values below are quoted from earlier work in paper PMC3086721.

One may read the pKd as the Kd on a negative log10 scale, so that one unit is a factor of ten.

pKd: −log10 of the molar value.

The series has as its target ubiquitin (Homo sapiens) (UniProt P0CG47).

Chain of E2-25K UBA (P61086 157-200): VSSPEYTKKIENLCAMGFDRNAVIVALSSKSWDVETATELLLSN

On to E2-25K UBA (from UniProt P61086), for which the negative-log Kd (pKd) is 3.40.
